The numbers were not newly measured in paper PMC9381557, which cites them from elsewhere.

A word on the Kd: it is the constant that tells how readily two partners part at equilibrium.

The target of the series is RAGE V domain (Homo sapiens) (UniProt Q15109).
Sequence of UniProt Q15109 (Q15109 23-116): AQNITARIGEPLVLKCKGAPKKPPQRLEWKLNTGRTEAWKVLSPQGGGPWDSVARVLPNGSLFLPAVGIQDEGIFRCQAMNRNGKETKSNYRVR

For the substance S100P (from UniProt P25815), the Kd is 6.8 µM.
